Assay results from PMC314469, “Protein Interaction Networks by Proteome Peptide Scanning” (PLoS Biology, 2004).

T1: amphyphisin SH3 (AMPH_HUMAN), P49418
T1 chain: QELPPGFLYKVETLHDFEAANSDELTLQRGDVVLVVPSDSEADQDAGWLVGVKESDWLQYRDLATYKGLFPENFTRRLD


Assays:
[1] = molecular target: endophilin SH3 (SH3G2_HUMAN), Q99962; assay: SPOT array
[2] = molecular target: T1, amphyphisin SH3 (AMPH_HUMAN), P49418; assay: SPOT array

Row | Binder | normalised SPOT signal, Boehringer light units (BLU); mean over the file's lines of this peptide [1] | normalised SPOT signal, Boehringer light units (BLU); mean over the file's lines of this peptide [2]
1 | RLYSIHRPSKQSLN [P55001 106-119] | 290 | 37.2
2 | RHWRPWRPDKTKKQ [Q9NWH6 590-603] | 568 | 580
3 | AVAIPNRPPDAVLT [P51659 480-494] | 79.1 | 49.8
4 | AVAPPARPPRPPYP [AAH27972 515-529] | 9580 | 4180
5 | RPNPLRRPLNRKRA [Q96CZ1 23-36] | 200 | 156
6 | RPAVLPRPEKPQLP [P78314 398-411] | 213 | 197
7 | RHQRLHRPGRPVPG [Q92657 54-67] | 64.3 | 11.8
8 | RILQFPRPVKLEDL [Q9Y2U5 55-68] | 119 | 108
9 | RMKRPFRPPPAHFQ [P58012 147-161] | 5130 | 554
10 | RLTSPLRPPEGVRL [O75467 160-174] | 1040 | 235
11 | RPAKPHKPPGSMGL [O60292 677-691] | 5260 | 163
12 | RLHRLRRPHSSSDA [Q9NT23 226-239] | 9.6 | 12.5
13 | AAAVPRRPTQQGTV [Q96SQ5 2-15] | 182 | 38.9
14 | RLFSIVRPRRLLYM [Q9UL53 87-100] | 702 | 1390
15 | RLAGPPRPPGHPRE [Q9BQU6 64-78] | 2700 | 162
16 | RLRLPPKPPPPLQP [Q14296 184-198] | 6030 | 896
17 | AVAVPRRPRAGAER [O94839 5-18] | 256 | 106
18 | RKWYPLRPKKINLD [Q9NRN8 254-267] | 204 | 177
19 | RPALPGRPPRWLNR [Q8TDZ8 103-117] | 13400 | 16100
20 | RNPVLRRPPILEDY [Q96S08 361-374] | 15.8 | 29.1
21 | RPPFLSRPARGLYS [Q16512 357-370] | 1450 | 774

Row | Binder | normalised SPOT signal, Boehringer light units (BLU); mean over the file's lines of this peptide [1] | normalised SPOT signal, Boehringer light units (BLU); mean over the file's lines of this peptide [2]
22 | RMLVPGRPVKDATP [O94938 456-469] | 2930 | 352
23 | RLRHLRRPRVARLL [Q9H1C0 128-141] | 24.3 | 15.2
24 | RLKTLRRPRVRDRL [Q9NRC6 2111-2124] | 32.1 | 35.2
25 | RLLPPQRPGKSQRV [Q9UJS3 337-350] | 25000 | 2730
26 | RLPELKRPSGDQVQ [Q07075 143-156] | 34.9 | 37.2
27 | RKMEIYRPHKATAE [Q92769 50-63] | 179 | 16.3
28 | RLIAPRRPWTLSHV [Q96M18 45-58] | 2240 | 1130
29 | RLAALKRPDDVPLS [Q9UFC0 277-290] | 49.2 | 38
30 | RPALPGRPPQVAEQ [BAC05290 145-159] | 501 | 54.8
31 | RPHAPGRPARGKVQ [Q16439 323-336] | 1270 | 3930
32 | RPEDPTRPSRFQQQ [O15067 285-298] | 149 | 1830
33 | RLNWLGRPSKVLSL [O00407 179-192] | 270 | 213
34 | AVGPPKRPQPAALE [Q9ULK5 32-45] | 393 | 31.9
35 | RKPELERPIKVNLA [Q01650 421-434] | 123 | 103
36 | RLGPPKRPPRKLGP [O15235 37-51] | 10500 | 17100
37 | RLIAISRPLRYVTV [P58180 122-135] | 658 | 4460
38 | RKFSLERPFRPSVT [Q9BXL7 634-647] | 105 | 797
39 | RKPKPERPPSSSSS [Q9BW08 289-303] | 7630 | 66.8
40 | RPAPPQRPPPPSGA [O43426 1118-1132] | 12200 | 1990
41 | RKMEIYRPHKANAE [Q13547 49-62] | 78.7 | 90.1
42 | RIIAFSRPVKYEDV [Q99759 56-69] | 79.6 | 113
